These are literature values, as cited in paper PMC3634455.

The target in data set [1] is plasminogen (Homo sapiens) (UniProt P00747).
A further data set has as its target tPA (Homo sapiens) (UniProt P00750).
UniProt P00750, sequence (P00750 36-562): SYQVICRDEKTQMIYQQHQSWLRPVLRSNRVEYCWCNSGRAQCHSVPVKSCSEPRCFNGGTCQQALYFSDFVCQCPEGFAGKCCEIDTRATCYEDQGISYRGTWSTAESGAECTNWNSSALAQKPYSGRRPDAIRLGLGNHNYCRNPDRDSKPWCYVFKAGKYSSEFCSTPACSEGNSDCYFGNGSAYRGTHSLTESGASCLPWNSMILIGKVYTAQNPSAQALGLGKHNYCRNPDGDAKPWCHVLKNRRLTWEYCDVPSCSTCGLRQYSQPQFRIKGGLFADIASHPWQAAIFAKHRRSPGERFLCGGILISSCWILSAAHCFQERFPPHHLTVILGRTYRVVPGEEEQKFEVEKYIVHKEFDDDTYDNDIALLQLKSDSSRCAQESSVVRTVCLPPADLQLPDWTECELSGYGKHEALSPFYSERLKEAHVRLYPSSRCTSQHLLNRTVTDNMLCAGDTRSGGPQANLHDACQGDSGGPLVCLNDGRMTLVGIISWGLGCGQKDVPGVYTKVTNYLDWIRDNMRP

UniProt P00747, sequence (P00747 20-810): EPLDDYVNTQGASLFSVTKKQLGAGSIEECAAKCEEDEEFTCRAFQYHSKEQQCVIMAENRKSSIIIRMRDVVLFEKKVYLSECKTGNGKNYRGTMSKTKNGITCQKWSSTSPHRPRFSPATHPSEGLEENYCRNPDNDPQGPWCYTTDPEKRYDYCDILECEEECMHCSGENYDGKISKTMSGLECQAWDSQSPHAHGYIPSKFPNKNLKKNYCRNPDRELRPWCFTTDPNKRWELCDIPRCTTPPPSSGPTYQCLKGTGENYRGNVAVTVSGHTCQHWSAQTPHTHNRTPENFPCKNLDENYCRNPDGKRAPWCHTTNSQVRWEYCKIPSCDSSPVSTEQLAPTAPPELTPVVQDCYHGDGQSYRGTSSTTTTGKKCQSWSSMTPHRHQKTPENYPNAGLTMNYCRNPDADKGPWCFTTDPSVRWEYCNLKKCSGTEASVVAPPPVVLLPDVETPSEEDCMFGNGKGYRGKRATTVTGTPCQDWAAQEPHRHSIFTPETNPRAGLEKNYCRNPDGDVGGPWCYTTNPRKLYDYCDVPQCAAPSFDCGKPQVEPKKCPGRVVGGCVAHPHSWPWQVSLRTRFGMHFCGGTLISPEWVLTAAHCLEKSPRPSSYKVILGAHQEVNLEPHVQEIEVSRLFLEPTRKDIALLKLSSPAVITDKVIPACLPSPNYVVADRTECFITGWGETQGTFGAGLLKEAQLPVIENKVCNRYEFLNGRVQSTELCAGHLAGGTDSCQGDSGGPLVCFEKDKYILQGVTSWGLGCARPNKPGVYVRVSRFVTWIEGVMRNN

One may read the Kd as the equilibrium constant for the complex coming apart. Turning to “S100A10 (annexin A2 heterotetramer) (from UniProt P60903)”, the Kd in data set [1] was 110 nM; with tPA (Homo sapiens), 680 nM.
